For assay [1], the target named is T1, human CD20 (human, UniProt P11836 1-297).
T1 construct: On human CD20-transfected MG87 cells, or endogenous on Daudi, RL and Raji cells; also called hCD20
T1 sequence: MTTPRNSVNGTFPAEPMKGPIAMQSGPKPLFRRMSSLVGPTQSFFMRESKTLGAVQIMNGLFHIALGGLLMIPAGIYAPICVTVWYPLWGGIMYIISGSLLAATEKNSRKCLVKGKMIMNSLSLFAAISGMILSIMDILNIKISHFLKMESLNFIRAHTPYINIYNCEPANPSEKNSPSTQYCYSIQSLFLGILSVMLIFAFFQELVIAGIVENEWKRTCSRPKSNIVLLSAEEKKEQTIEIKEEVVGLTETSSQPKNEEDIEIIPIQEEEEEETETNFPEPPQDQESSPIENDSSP
The experiment in a line: flow cytometry, hCD20-transfected MG87 cells. The method, then:
Briefly, parental MG87 and human CD20-transfected MG87 cells were incubated for 30 min at 4° C. with each of the 15 human antibodies and the two control antibodies, followed by incubation with PE-conjugated anti-human IgG antibody. Binding was assessed by flow cytometry. Fluorescence intensities were compared with binding to the parental cell line and control isotype-matched sample.
A general note: A flow cytometer gives signals particle by particle.

In assay [2] the target is T1, human CD20. In words: cell-based or functional assay.
Assay [3] addresses T2, mutant human CD20 #2 (N163D) (human, UniProt P11836 1-297).
T2 construct: Stably expressed on MG87 cells
T2 sequence: T1 sequence with N163D
In words: FACS, mutant-hCD20 MG87 cells; 100%=best antibody. The method, then:
(§1) Briefly, approximately 1×10⁶ cells from each stably transfected cell line expressing a mutant human CD20 were collected and incubated with each anti-human antibody, at 10 μg/ml, on ice for 1 hr, followed by incubation with APC-conjugated goat anti-human IgG (Jackson Immunolabs), at 10 μg/ml, on ice for 45 min. For each antibody, binding to each mutant human CD20 was assessed by flow cytometry.

In assay [4] the target is T3, mutant human CD20 #9 (N163D, N166D) (human, UniProt P11836 1-297).
T3 construct: Stably expressed on MG87 cells
T3 chain: T1 sequence with N163D, N166D
In words: FACS, mutant-hCD20 MG87 cells; 100%=best antibody. As for the experimental part:
as §1

The target in assay [5] is T4, mutant human CD20 #7 (Y77F, N163D) (human, UniProt P11836 1-297).
T4 construct: Stably expressed on MG87 cells
T4 chain: T1 sequence with Y77F, N163D
In words: FACS, mutant-hCD20 MG87 cells; 100%=best antibody. The method, then: as §1

For assay [6], the target named is T5, mutant human CD20 #4 (N166D) (human, UniProt P11836 1-297).
T5 construct: Stably expressed on MG87 cells
T5 sequence: T1 sequence with N166D
The experiment in a line: FACS, mutant-hCD20 MG87 cells; 100%=best antibody. The method, then: as §1

For assay [7], the target named is T1, human CD20. The experiment in a line: cell-based or functional assay. The source holds these as a separate data set.

Substitutions are numbered along the chain they refer to. Read-outs that look alike come from different tables or passages of the source.

B1: 9D4-7 (antibody, V domains shown)
VH: EVQLVESGGGLVQPGRSLRLSCAASGFTFYDYAMHWVRQAPGKGLEWVSGISWNSDTIGYADSVKGRFTISRDNAKNSLYLQMNSLRAEDTALYYCTKDGSYGHFYSGLDVWGQGTTVTVSS
VL: EIVLTQSPATLSLSPGERATLSCRASQSVSSYLAWYQQKPGQAPRLLIYVASNRATGIPARFSGSGSGTDFTLTISSLEPDDFAVYYCQQRYYWPLTFGGGTKVEIK
notes: Fully human IgG, constant region not specified; also called 9D4-7N
Consider B1, for which the “Total Mean Fluorescent Intensity” value in assay [1] is 3160. In addition, the “% Cytotoxicity (CDC, Daudi), 0 hour” value in assay [2] is 99.4%. Further, the “% Cytotoxicity (CDC, Daudi), 1 hour” value in assay [2] is 99%. For the same molecule, in assay [2], the “% Cytotoxicity (CDC, Daudi), 6 hour” value is 96%. Further, the “Percent of Binding to Mutant Human CD20” value in assay [3] was found to be 2%; in assay [4] it was 4%; in assay [5], 2%; in assay [6], 5%.

B2: 2B7-7 (antibody, V domains shown)
VH: EVQLVESGGGLVQPGRSLRLSCAASGFTFRDYTMHWVRQGPGKGLEWVSGISWNSDYIGYADSVKGRFTISRDNAKNSLYLQMNSLRVEDTALYYCAKLSGTYRDYFYGVDVWGQGTTVTVSS
VL: B1 VL with T20A, S31N, V50D, D81E, Y92S, Y93N, K107R
notes: Fully human IgG, constant region not specified; also called 2B7-7N
Turning to B2, in assay [1], the “Total Mean Fluorescent Intensity” value is 3480. For the same molecule, the “% Cytotoxicity (CDC, Daudi), 0 hour” value in assay [2] turned out to be 99.4%. Moreover, the “% Cytotoxicity (CDC, Daudi), 1 hour” value in assay [2] was 99.4%. Besides, in assay [2], the “% Cytotoxicity (CDC, Daudi), 6 hour” value turned out to be 98.3%. The “Percent of Binding to Mutant Human CD20” value in assay [3] was found to be 40%; in assay [4], 4%; in assay [5], 2%; in assay [6], 100%.

B3: 8G6-5 (antibody, V domains shown)
VH: EVQLAESGGDLVQSGRSLRLSCAASGITFHDYAMHWVRQPPGKGLEWVSGISWNSDYIGYADSVKGRFTISRDNAKKSLYLQMNSLRPDDTALYYCVKDFHYGSGSNYGMDVWGQGTTVTVSP
VL: EIVMTQSPATLSMSPGERATLSCRASQSVSRNLAWYQQKVGQAPRLLISGASTRATGIPARFSGSGSGTEFTLTINSLQSEDFAVYYCQQSNDWPLTFGQGTRLEIK
notes: Fully human IgG, constant region not specified; also called 8G6-5N
Consider B3, for which the “Total Mean Fluorescent Intensity” value in assay [1] was 3410. The “% Cytotoxicity (CDC, Daudi), 0 hour” value in assay [2] is 99.6%. In assay [2], the “% Cytotoxicity (CDC, Daudi), 1 hour” value was found to be 99.2%. Besides, the “% Cytotoxicity (CDC, Daudi), 6 hour” value in assay [2] turned out to be 97.7%. Further, the “Percent of Binding to Mutant Human CD20” value in assay [3] stood at 45%; in assay [4], 4%; in assay [5], 1%; in assay [6] it was 70%.

B4: 10F2-13 (antibody, V domains shown)
VH: EEQLVESGGDLVQPGRSLRLSCAASGFTFHDYTMHWVRQAPGKGLEWVSGISWNSGSLGYADSVKGRFTISRDNAKKSLYLQMNSLRAEDTALYYCAKDPSYGSGSYHSYYGMDVWGQGTTVTVSS
VL: EIVLTQSPATLSLSPGERATLSCWASQSISRYLVWYQQKCGQAPRLLIYEASKRATGIPVRFSGSGSGTDFTLTISSLESEDFAVYYCQQRFNWPLTFGGGTKVEIK
notes: Fully human IgG, constant region not specified; also called 10F2-13N; ab 10F2-13
For the molecule B4, in assay [1], the “Total Mean Fluorescent Intensity” value came out at 3400. Further, in assay [2], the “% Cytotoxicity (CDC, Daudi), 0 hour” value was found to be 99.6%. The “% Cytotoxicity (CDC, Daudi), 1 hour” value in assay [2] came out at 99.2%. In addition, in assay [2], the “% Cytotoxicity (CDC, Daudi), 6 hour” value worked out at 98.5%. For the same molecule, the “Percent of Binding to Mutant Human CD20” value in assay [3] amounted to 54%; in assay [4] it was 4%; in assay [5], 2%; in assay [6], 60%.

B5: 10E3-17 (antibody, V domains shown)
VH: EVQLVESGGGLVQPGRSLRLSCAASGFTFRDYAMHWVRQVPGKGLEWVSGISWNRGTIGYADSVKGRFTISRDNAKNSLFLQMNSLRADDTALYYCAKDHYYGSGSPYGMDVWGQGTTVTVSS
VL: EIVLTQSPATLALSPGERATLSCRASQSVSKYLAWYQQKPGQAPRLLIYDASKRVTGIPGRLSGSGSGTDFTLTISSLEPEDFALYYCQQSSNWPITFGQGTRVEIK
notes: Fully human IgG, constant region not specified; also called 10E3-17N
With B5, the “Total Mean Fluorescent Intensity” value in assay [1] came to 3070. Further, the “Percent of Binding to Mutant Human CD20” value in assay [3] is 1%; in assay [4], 4%; in assay [5] it was 1%; in assay [6], 1%. The “% Cytotoxicity (CDC, Daudi), 0 hour” value in assay [7] stood at 97%. Besides, in assay [7], the “% Cytotoxicity (CDC, Daudi), 1 hour” value is 96.2%. In assay [7], the “% Cytotoxicity (CDC, Daudi), 6 hour” value was determined as 79.2%.

B6: 6F6-1 (antibody, V domains shown)
VH: AVQLVESGGGLVQPGRSLRLSCAASGFTFRDYAMHWVRQGPGKGLEWVSGISWNTDYIGYADSVKGRFTISRDNAKNSLYLQMNSLRPEDTALYYCAKDARYGRDNYYGMDVWGQGTTVTVSS
VL: EIVMTQSPATLSVSPGERATLSCRASQSVSHNLAWYQQKPGQAPRLLIYGAYTRATGIPDRFSGTGSGTEFTLTISSLQSEDFAVFYCQQYNNWPLTFGGGTKVEIK
notes: Fully human IgG, constant region not specified; also called 6F6-1N
Take B6: in assay [1], the “Total Mean Fluorescent Intensity” value is 3390. Besides, the “Percent of Binding to Mutant Human CD20” value came to 74% in assay [3], 4% in assay [4], 2% in assay [5] and 85% in assay [6]. For the same molecule, the “% Cytotoxicity (CDC, Daudi), 0 hour” value in assay [7] turned out to be 97.1%. In assay [7], the “% Cytotoxicity (CDC, Daudi), 1 hour” value was 97.1%. Besides, in assay [7], the “% Cytotoxicity (CDC, Daudi), 6 hour” value is 76.4%.

B7: 9E4-20 (antibody, V domains shown)
VH: B6 VH with A1E, R30Y, G40A, T55S, P88A, D105N, Q115P
VL: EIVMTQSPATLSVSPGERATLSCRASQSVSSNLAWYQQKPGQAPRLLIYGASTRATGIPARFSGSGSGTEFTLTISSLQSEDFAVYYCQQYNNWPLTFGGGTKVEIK
notes: Fully human IgG, constant region not specified; also called 9E4-20N
For B7, the “Total Mean Fluorescent Intensity” value in assay [1] is 2910. The “Percent of Binding to Mutant Human CD20” value came out at 0% in assay [3], 3% in assay [4], 1% in assay [5] and 8% in assay [6]. Moreover, the “% Cytotoxicity (CDC, Daudi), 0 hour” value in assay [7] came out at 67.4%. In addition, the “% Cytotoxicity (CDC, Daudi), 1 hour” value in assay [7] turned out to be 31.2%. The “% Cytotoxicity (CDC, Daudi), 6 hour” value in assay [7] came out at 49.9%.

B8: 9C11-14 (antibody, V domains shown)
VH: QVQLVESGGDSVKPGGSLRLSCAASGFTFSDSYMTWIRQAPGKGLEWVSFISSSGSTIYYADSVKGRFTISRDNVKKSLYLQMNRLRAEDTAVYYCAREEPGNYVYYGMDVWGQGTTVTVSS
VL: EIVVTQSPATLSLSPGERATLSCRTSQTTTSYLAWYRQKPGQAPRLLIYDASNRAAGIPARFSGSGSGTDFTLTINSLEPEDFAVYYCQLRTNWITFGQGTRLEIK
notes: Fully human IgG, constant region not specified; also called 9C11-14N
For the molecule B8, the “Total Mean Fluorescent Intensity” value in assay [1] came to 2750. Also, the “% Cytotoxicity (CDC, Daudi), 0 hour” value in assay [2] amounted to 55.8%. Further, the “% Cytotoxicity (CDC, Daudi), 1 hour” value in assay [2] stood at 22.3%. Further, the “% Cytotoxicity (CDC, Daudi), 6 hour” value in assay [2] worked out at 12.9%. For the same molecule, the “Percent of Binding to Mutant Human CD20” value in assay [3] amounted to 83%; in assay [4], 100%; in assay [5] it was 96%; in assay [6], 87%.

Values taken from US20090035322A1 (Regeneron, published 2009).
